From the supplement of paper PMC9112550, “Optimization of the antimicrobial peptide Bac7 by deep mutational scanning” (BMC Biology, 2022)

Tested on: Escherichia coli TOP10
Test: shrunken log2 fold change of peptide-encoding DNA abundance (4.5 h post-induction vs induction); higher = less antimicrobial activity (less host growth inhibition)
Details: time post-induction: 4.5 h; library: site-saturation at positions 5, 18, 19, 20
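Also: peptides expressed intracellularly from a pBAD plasmid library in pooled LB shake-flask culture, induced with 0.3% L-arabinose, DNA abundance read by NGS, three biological replicates, DESeq2 with apeglm shrinkage.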

Sequence: RRIRPRPPRLPRPRPRPSMHPRP
- shrunken log2 fold change: 0.828

Sequence: RRIRKRPPRLPRPRPRPFPDPRP
- shrunken log2 fold change: -0.112

Sequence: RRIRFRPPRLPRPRPRPMNPPRP
- shrunken log2 fold change: -0.0531

Sequence: RRIRFRPPRLPRPRPRPGSTPRP
- shrunken log2 fold change: -0.183

Sequence: RRIRARPPRLPRPRPRPIKCPRP
- shrunken log2 fold change: -0.249

Sequence: RRIRARPPRLPRPRPRPMLPPRP
- shrunken log2 fold change: 0.425

Sequence: RRIRIRPPRLPRPRPRPVWGPRP
- shrunken log2 fold change: 0.0298

Sequence: RRIRRRPPRLPRPRPRPFNWPRP
- shrunken log2 fold change: 0.0111

Sequence: RRIRHRPPRLPRPRPRPDQCPRP
- shrunken log2 fold change: -0.000823

Sequence: RRIRHRPPRLPRPRPRPICPPRP
- shrunken log2 fold change: -0.144

Sequence: RRIRIRPPRLPRPRPRPLSNPRP
- shrunken log2 fold change: -0.893

Sequence: RRIRFRPPRLPRPRPRPTGRPRP
- shrunken log2 fold change: 0.131

Sequence: RRIRHRPPRLPRPRPRPNQMPRP
- shrunken log2 fold change: -0.0904

Sequence: RRIRRRPPRLPRPRPRPDRIPRP
- shrunken log2 fold change: 0.14

Sequence: RRIRPRPPRLPRPRPRPDDQPRP
- shrunken log2 fold change: 0.0917

Sequence: RRIRHRPPRLPRPRPRPLDFPRP
- shrunken log2 fold change: -0.342

Sequence: RRIRFRPPRLPRPRPRPTDTPRP
- shrunken log2 fold change: -0.263

Sequence: RRIRARPPRLPRPRPRPAFCPRP
- shrunken log2 fold change: 0.645

Sequence: RRIRLRPPRLPRPRPRPDLPPRP
- shrunken log2 fold change: -0.0128

Sequence: RRIRHRPPRLPRPRPRPAQLPRP
- shrunken log2 fold change: -0.3

Sequence: RRIRCRPPRLPRPRPRPYCPPRP
- shrunken log2 fold change: -0.968

Sequence: RRIRRRPPRLPRPRPRPAAPPRP
- shrunken log2 fold change: 0.922

Sequence: RRIRVRPPRLPRPRPRPDLEPRP
- shrunken log2 fold change: -0.0782

Sequence: RRIRCRPPRLPRPRPRPCVAPRP
- shrunken log2 fold change: 0.178

Sequence: RRIRKRPPRLPRPRPRPDFSPRP
- shrunken log2 fold change: 0.0114

Sequence: RRIRLRPPRLPRPRPRPKRGPRP
- shrunken log2 fold change: 0.483

Sequence: RRIRFRPPRLPRPRPRPLFIPRP
- shrunken log2 fold change: -0.652

Sequence: RRIRFRPPRLPRPRPRPVEEPRP
- shrunken log2 fold change: -0.177

Sequence: RRIRRRPPRLPRPRPRPKNWPRP
- shrunken log2 fold change: 0.381

Sequence: RRIRWRPPRLPRPRPRPFVAPRP
- shrunken log2 fold change: 0.292

Sequence: RRIRVRPPRLPRPRPRPTVQPRP
- shrunken log2 fold change: -0.0375

Sequence: RRIRPRPPRLPRPRPRPTLVPRP
- shrunken log2 fold change: 0.114

Sequence: RRIRARPPRLPRPRPRPCAKPRP
- shrunken log2 fold change: 0.984

Sequence: RRIRERPPRLPRPRPRPEYRPRP
- shrunken log2 fold change: -0.00146

Sequence: RRIRRRPPRLPRPRPRPAFGPRP
- shrunken log2 fold change: 0.348

Sequence: RRIRCRPPRLPRPRPRPWYFPRP
- shrunken log2 fold change: -0.264

Sequence: RRIRQRPPRLPRPRPRPDCGPRP
- shrunken log2 fold change: 2.88

Sequence: RRIRRRPPRLPRPRPRPDNAPRP
- shrunken log2 fold change: -0.227

Sequence: RRIRRRPPRLPRPRPRPCHKPRP
- shrunken log2 fold change: 0.153

Sequence: RRIRKRPPRLPRPRPRPFDWPRP
- shrunken log2 fold change: 0.243

Sequence: RRIRWRPPRLPRPRPRPNSTPRP
- shrunken log2 fold change: -0.326

Sequence: RRIRTRPPRLPRPRPRPGLPPRP
- shrunken log2 fold change: 0.189

Sequence: RRIRTRPPRLPRPRPRPPWGPRP
- shrunken log2 fold change: 0.0724

Sequence: RRIRTRPPRLPRPRPRPSYIPRP
- shrunken log2 fold change: -0.511

Sequence: RRIRMRPPRLPRPRPRPDTHPRP
- shrunken log2 fold change: 0.18

Sequence: RRIRPRPPRLPRPRPRPEVMPRP
- shrunken log2 fold change: 0.462

Sequence: RRIRCRPPRLPRPRPRPWCHPRP
- shrunken log2 fold change: -0.463

Sequence: RRIRERPPRLPRPRPRPFWNPRP
- shrunken log2 fold change: -0.51

Sequence: RRIRFRPPRLPRPRPRPDSEPRP
- shrunken log2 fold change: 0.104

Sequence: RRIRVRPPRLPRPRPRPRHPPRP
- shrunken log2 fold change: 0.278

Sequence: RRIRFRPPRLPRPRPRPEWQPRP
- shrunken log2 fold change: -0.00149

Sequence: RRIRNRPPRLPRPRPRPPVRPRP
- shrunken log2 fold change: 0.489

Sequence: RRIRARPPRLPRPRPRPHWAPRP
- shrunken log2 fold change: -0.0191

Sequence: RRIRIRPPRLPRPRPRPWPQPRP
- shrunken log2 fold change: 0.0274

Sequence: RRIRRRPPRLPRPRPRPKCEPRP
- shrunken log2 fold change: 0.0268

Sequence: RRIRGRPPRLPRPRPRPIHLPRP
- shrunken log2 fold change: -0.0773

Sequence: RRIRERPPRLPRPRPRPRHWPRP
- shrunken log2 fold change: 0.0819

Sequence: RRIRGRPPRLPRPRPRPDVRPRP
- shrunken log2 fold change: 0.0237

Sequence: RRIRFRPPRLPRPRPRPLLTPRP
- shrunken log2 fold change: -0.166

Sequence: RRIRCRPPRLPRPRPRPAVCPRP
- shrunken log2 fold change: 0.297

Sequence: RRIRNRPPRLPRPRPRPNVDPRP
- shrunken log2 fold change: 0.112

Sequence: RRIRHRPPRLPRPRPRPHGMPRP
- shrunken log2 fold change: -0.000911

Sequence: RRIRKRPPRLPRPRPRPAEFPRP
- shrunken log2 fold change: 0.0773

Sequence: RRIRGRPPRLPRPRPRPDNCPRP
- shrunken log2 fold change: -0.0626

Sequence: RRIRIRPPRLPRPRPRPIKWPRP
- shrunken log2 fold change: -0.118

Sequence: RRIRYRPPRLPRPRPRPKGAPRP
- shrunken log2 fold change: 0.194

Sequence: RRIRERPPRLPRPRPRPSVDPRP
- shrunken log2 fold change: -0.318

Sequence: RRIRNRPPRLPRPRPRPCFKPRP
- shrunken log2 fold change: -0.0138

Sequence: RRIRRRPPRLPRPRPRPKGNPRP
- shrunken log2 fold change: 0.0579

Sequence: RRIRNRPPRLPRPRPRPHIKPRP
- shrunken log2 fold change: -0.595

Sequence: RRIRHRPPRLPRPRPRPDNIPRP
- shrunken log2 fold change: -0.207

Sequence: RRIRFRPPRLPRPRPRPYYIPRP
- shrunken log2 fold change: -0.794

Sequence: RRIRSRPPRLPRPRPRPDECPRP
- shrunken log2 fold change: 0.0932

Sequence: RRIRLRPPRLPRPRPRPSDVPRP
- shrunken log2 fold change: -0.533

Sequence: RRIRWRPPRLPRPRPRPMTAPRP
- shrunken log2 fold change: 0.473

Sequence: RRIRLRPPRLPRPRPRPPQWPRP
- shrunken log2 fold change: 0.322

Sequence: RRIRLRPPRLPRPRPRPGTIPRP
- shrunken log2 fold change: -0.689

Sequence: RRIRNRPPRLPRPRPRPKRAPRP
- shrunken log2 fold change: 0.146

Sequence: RRIRNRPPRLPRPRPRPASTPRP
- shrunken log2 fold change: -0.269

Sequence: RRIRGRPPRLPRPRPRPPHNPRP
- shrunken log2 fold change: 0.585

Sequence: RRIRHRPPRLPRPRPRPLVGPRP
- shrunken log2 fold change: 0.00867

Sequence: RRIRRRPPRLPRPRPRPTSMPRP
- shrunken log2 fold change: 0.263

Sequence: RRIRERPPRLPRPRPRPHRTPRP
- shrunken log2 fold change: -5.56e-05

Sequence: RRIRERPPRLPRPRPRPSLCPRP
- shrunken log2 fold change: -0.0545

Sequence: RRIRTRPPRLPRPRPRPEVLPRP
- shrunken log2 fold change: -0.0153

Sequence: RRIRRRPPRLPRPRPRPPYHPRP
- shrunken log2 fold change: 0.124

Sequence: RRIRARPPRLPRPRPRPHDDPRP
- shrunken log2 fold change: -0.0805

Sequence: RRIRKRPPRLPRPRPRPKRGPRP
- shrunken log2 fold change: 0.781

Sequence: RRIRKRPPRLPRPRPRPTCLPRP
- shrunken log2 fold change: 0.0518

Sequence: RRIRGRPPRLPRPRPRPQFVPRP
- shrunken log2 fold change: 0.0536

Sequence: RRIRHRPPRLPRPRPRPRDHPRP
- shrunken log2 fold change: 0.175

Sequence: RRIRDRPPRLPRPRPRPCFWPRP
- shrunken log2 fold change: 0.612

Sequence: RRIRGRPPRLPRPRPRPTNCPRP
- shrunken log2 fold change: 0.31

Sequence: RRIRIRPPRLPRPRPRPTCRPRP
- shrunken log2 fold change: -0.103

Sequence: RRIRARPPRLPRPRPRPGMRPRP
- shrunken log2 fold change: 0.545

Sequence: RRIRGRPPRLPRPRPRPIQEPRP
- shrunken log2 fold change: 0.416

Sequence: RRIRNRPPRLPRPRPRPSHTPRP
- shrunken log2 fold change: -0.412

Sequence: RRIRVRPPRLPRPRPRPFLMPRP
- shrunken log2 fold change: -0.208

Sequence: RRIRHRPPRLPRPRPRPTHDPRP
- shrunken log2 fold change: 0.124

Sequence: RRIRCRPPRLPRPRPRPKWCPRP
- shrunken log2 fold change: -0.105

Sequence: RRIRDRPPRLPRPRPRPNPFPRP
- shrunken log2 fold change: -0.343

Sequence: RRIRHRPPRLPRPRPRPYAVPRP
- shrunken log2 fold change: -0.0274

Sequence: RRIRKRPPRLPRPRPRPADKPRP
- shrunken log2 fold change: 0.122

Sequence: RRIRPRPPRLPRPRPRPTQIPRP
- shrunken log2 fold change: 0.13

Sequence: RRIRMRPPRLPRPRPRPVRWPRP
- shrunken log2 fold change: 1.38

Sequence: RRIRFRPPRLPRPRPRPLNEPRP
- shrunken log2 fold change: -0.226

Sequence: RRIRIRPPRLPRPRPRPWGQPRP
- shrunken log2 fold change: -0.00987

Sequence: RRIRGRPPRLPRPRPRPVANPRP
- shrunken log2 fold change: 0.623

Sequence: RRIRERPPRLPRPRPRPTDLPRP
- shrunken log2 fold change: 0.15

Sequence: RRIRIRPPRLPRPRPRPFCYPRP
- shrunken log2 fold change: -0.514

Sequence: RRIRYRPPRLPRPRPRPCIKPRP
- shrunken log2 fold change: 1.75

Sequence: RRIRFRPPRLPRPRPRPMWQPRP
- shrunken log2 fold change: -0.00366

Sequence: RRIRMRPPRLPRPRPRPCDIPRP
- shrunken log2 fold change: -0.151

Sequence: RRIRSRPPRLPRPRPRPHALPRP
- shrunken log2 fold change: 0.0303

Sequence: RRIRTRPPRLPRPRPRPQASPRP
- shrunken log2 fold change: 2.4

Sequence: RRIRDRPPRLPRPRPRPANFPRP
- shrunken log2 fold change: 0.0245

Sequence: RRIRNRPPRLPRPRPRPFPRPRP
- shrunken log2 fold change: 0.0857

Sequence: RRIRTRPPRLPRPRPRPRIMPRP
- shrunken log2 fold change: -0.254

Sequence: RRIRSRPPRLPRPRPRPSAMPRP
- shrunken log2 fold change: 0.292

Sequence: RRIRWRPPRLPRPRPRPGHTPRP
- shrunken log2 fold change: 0.0581

Sequence: RRIRVRPPRLPRPRPRPPGRPRP
- shrunken log2 fold change: 0.593

Sequence: RRIRNRPPRLPRPRPRPGDFPRP
- shrunken log2 fold change: 0.264

Sequence: RRIRQRPPRLPRPRPRPPFYPRP
- shrunken log2 fold change: -0.0349

Sequence: RRIRVRPPRLPRPRPRPHYYPRP
- shrunken log2 fold change: 0.0781

Sequence: RRIRNRPPRLPRPRPRPQMMPRP
- shrunken log2 fold change: -0.227

Sequence: RRIRCRPPRLPRPRPRPQPYPRP
- shrunken log2 fold change: -0.975

Sequence: RRIRFRPPRLPRPRPRPQYAPRP
- shrunken log2 fold change: -0.862

Sequence: RRIRDRPPRLPRPRPRPEVLPRP
- shrunken log2 fold change: 1.14

Sequence: RRIRKRPPRLPRPRPRPNDWPRP
- shrunken log2 fold change: 0.455

Sequence: RRIRRRPPRLPRPRPRPCPIPRP
- shrunken log2 fold change: 0.0892

Sequence: RRIRGRPPRLPRPRPRPQSQPRP
- shrunken log2 fold change: 0.139

Sequence: RRIRTRPPRLPRPRPRPSFGPRP
- shrunken log2 fold change: 0.129

Sequence: RRIRFRPPRLPRPRPRPIRPPRP
- shrunken log2 fold change: -0.009

Sequence: RRIRARPPRLPRPRPRPKLAPRP
- shrunken log2 fold change: 0.555

Sequence: RRIRWRPPRLPRPRPRPNNHPRP
- shrunken log2 fold change: -0.588

Sequence: RRIRSRPPRLPRPRPRPMEMPRP
- shrunken log2 fold change: -0.0909

Sequence: RRIRLRPPRLPRPRPRPSCIPRP
- shrunken log2 fold change: -0.461

Sequence: RRIRKRPPRLPRPRPRPTPKPRP
- shrunken log2 fold change: 0.334

Sequence: RRIRGRPPRLPRPRPRPPECPRP
- shrunken log2 fold change: 0.483

Sequence: RRIRNRPPRLPRPRPRPFAMPRP
- shrunken log2 fold change: -0.177

Sequence: RRIRKRPPRLPRPRPRPWCNPRP
- shrunken log2 fold change: -0.204

Sequence: RRIRQRPPRLPRPRPRPFANPRP
- shrunken log2 fold change: 0.0297

Sequence: RRIRHRPPRLPRPRPRPEHLPRP
- shrunken log2 fold change: 0.0981

Sequence: RRIRIRPPRLPRPRPRPCKLPRP
- shrunken log2 fold change: -0.167

Sequence: RRIRKRPPRLPRPRPRPMWHPRP
- shrunken log2 fold change: -0.183

Sequence: RRIRYRPPRLPRPRPRPDIWPRP
- shrunken log2 fold change: -0.00585

Sequence: RRIRTRPPRLPRPRPRPSTWPRP
- shrunken log2 fold change: -0.176

Sequence: RRIRDRPPRLPRPRPRPMTHPRP
- shrunken log2 fold change: 0.0105

Sequence: RRIRMRPPRLPRPRPRPHFGPRP
- shrunken log2 fold change: 0.0712

Sequence: RRIRVRPPRLPRPRPRPVPNPRP
- shrunken log2 fold change: -0.175
